The source of these data is US20140239237A1 (BOARD OF TRUSTEES OF MICHIGAN STATE UNIVERSITY, published 2014).

Data set [1] deals with the molecule itself. The experiment in a line: in vitro self-assembly into fibers, seen by TEM and AFM.
Data set [2] concerns the molecule itself. The experiment in a line: in vitro self-assembly, TEM.

Where a chain is given by its changes, count along the chain named. Names and notes keep the numbering of the source.

B1: PilA19 peptide (19 amino acid N-terminal truncation of G. sulfurreducens PilA) (peptide)
peptide: AIPQFSAYRVKAYNSAASSDLRNLKTALESAFADDQTYPPES
notes: 42 residues, released from the CBD-intein fusion with DTT; also called PilA19 subunit; PilA19 monomer
Consider B1, for which the binding result in data set [1] is given as “binds”.

B2: PilA19-A20C cysteine-modified recombinant pilin (peptide)
peptide: B1 peptide with A1C
notes: 42 residues; The N-terminal alanine of PilA19, position 20 of full-length mature PilA, is replaced by cysteine; also called cysteine-modified subunit; PilA19-A20C monomer
With B2, the binding result in data set [2] is “binds”.
